The values below come from patent US20240100174A1, “PROTEIN-PEG INTERACTIONS THAT REDIRECT THE THERMAL UNFOLDING PATHWAY OF PEGYLATED HUMAN GALECTIN-3C” (UNIVERSITY OF FLORIDA RESEARCH FOUNDATION, INCORPORATED, priority 2022, published 2024).

The nature of series [1]: Equilibrium binding of lactose, intrinsic tryptophan fluorescence. The following applies: ligand lactose; average ± standard deviation of 3 replicated experiments; PBS; read-out: Kd (equilibrium binding constant). The method, then:
(§1) Equilibrium binding data were recorded using a protocol adapted from a previous procedure from Restuccia, et al (38). Intrinsic tryptophan fluorescence was monitored using a Cary Eclipse™ Fluorescence Spectrophotometer (Agilent) operating with Cary Eclipse™ WinFLR software version 1.2 in ‘Scan Mode’. The instrument method parameters were as follows: excitation wavelength was 280 nm, the acquisition range was from 290 nm to 440 nm and the photomultiplier tube sensitivity was set to ‘medium’. Samples were prepared at final concentrations of 1 μM for Gal3C[T243C] or 5 μM Gal3C[T243C]-PEG in 800 ∥L, in PBS for each titration. Samples were pipetted into 0.7×0.7 cm quartz cuvettes with a micro stir bar. Each new experiment was first zeroed against PBS to remove the small background signal from the buffer. […]
The binding affinity and specificity of Gal3C[T243C]-PEG was compared with Gal3C[T243C] and Gal3C (see FIG. 1C, FIG. 9 and FIG. 10) via an inherent tryptophan fluorescence assay optimized to ensure equilibrium binding conditions. Binding of lactose or LacNac quenches the fluorescence of W181, located adjacent to the bound sugar in the crystal structure of Gal3C, thus permitting direct measurement of ligand Kd values.

Series [2] can be described thus: Equilibrium binding of LacNac, intrinsic tryptophan fluorescence. The settings on record: ligand LacNac; average ± standard deviation of 3 replicated experiments; PBS; read-out: Kd (equilibrium binding constant). The method, then: as §1
The binding affinity and specificity of Gal3C[T243C]-PEG was compared with Gal3C[T243C] and Gal3C (see FIG. 1C, FIG. 9 and FIG. 10) via an inherent tryptophan fluorescence assay optimized to ensure equilibrium binding conditions. Binding of lactose or LacNac quenches the fluorescence of W181, located adjacent to the bound sugar in the crystal structure of Gal3C, thus permitting direct measurement of ligand Kd values. […]

The nature of series [3]: Rotational correlation time from 15N T1/T2 NMR relaxation. The class given is physicochemical. The settings on record: 30° C.; error is 95% confidence interval. Here is the method:
NMR data were recorded for temperatures between 30° C. and 55° C., as noted in the main text, with a Broker Avance™ III spectrometer operating at 800 MHz, running Topspin™ version 3.6.3 and equipped with a 5 mm TXI cryoprobe. The temperature was calibrated using a standard sample of 4% methanol in d4-MeOH. 2D [^15N, ^1H]-HSQC spectra were recorded using a gradient sensitivity-enhanced pulse sequence (hsqcetf3gpsi) with 2048 points in the direct dimension, between 180 to 260 points in the indirect dimension and between 32 to 736 scans per experiment, depending on the final sample concentration to achieve similar signal-to-noise ratios for all data. The ^15N T1 and T2 relaxation measurements were acquired with 1D ^15N-edited HSQC-based experiments (hsqct1etf3gpsi3d and hsqct2etf3gpsi3d) with 2048 points and 512 scans per experiment. For T1 measurements, experiments were recorded with relaxation delays of 0.02, 0.05, 0.1, 0.2, 0.3, 0.4, 0.6, 0.8,1, 1.2 or 1.5 s. […]
The rotational correlation times τc of Gal3C[T243C] and Gal3C[T243C]-PEG was then determined from T1 and T2 using the following spectral density function (j(ω)) equations […]
To investigate whether PEG and Gal3C[T243C] behaved more as two independent domains within the conjugated protein or if they interacted more closely, the rotational correlation times (τc) for Gal3C[T243C] and Gal3C[T243C]-PEG at 30° C. were determined. […]

B1: Gal3C[T243C]: Gal3C variant with a single extrinsic cysteine at position 243; SEQ ID NO: 11 (protein)
chain: MAGPLIVPYNLPLPGGVVPRMLITILGTVKPNANRIALDFQRGNDVAFHFNPRFNENNRRVIVCNTKLDNNWGREERQSVFPFESGKPFKIQVLVEPDHFKVAVNDAHLLQYNHRVKKLNEISKLGISGDIDLTSASYCMILEHHHHHH
Usually Kd stands for the free concentration of one partner at which half of the binding sites on the other are occupied at equilibrium, for simple one-to-one binding. Turning to B1, the Kd in series [1] was determined as 413 ± 102 µM; in series [2], 230 ± 56.5 µM. The “rotational correlation time (τc)” value in series [3] was 10.7 (±0.7) ns.
